The target in test [1] is T1, human TIM-3 (Accession No. JX049979.1) stably expressed on cells (human, UniProt Q8TDQ0 22-301).
T1 construct: whole, on cells; On Jurkat or 293T cells; also called Jurkat/TIM-3; 293T/TIM-3
Nature of the test: flow cytometry, 293T/TIM-3 cells, KD from MFI.

In test [2] the target is T1, human TIM-3 (Accession No. JX049979.1) …. The test can be described thus: flow cytometry, Jurkat/TIM-3 cells, KD from MFI.
For test [3] the target is unchanged. The test can be described thus: flow cytometry, 293T/TIM-3 + CD39 cells, KD from MFI.
The target is the same in test [4]. Nature of the test: flow cytometry, Jurkat/TIM-3 + CD39 cells, KD from MFI.
The target of test [5] is T2, biotinylated human TIM-3-Fc antigen (in-house product, SEQ ID No: 118) (human, biotinylated). The test can be described thus: flow cytometry, inhibition of biotinylated TIM-3-Fc binding to phosphatidylserine on apoptotic Jurkat cells.
The target of test [6] is T2, biotinylated human TIM-3-Fc antigen …. The description is as above. This is another data set of the same source.
Test [7] has as its target T3, human CD39 (Accession No. NM_001776.6) expressed on cells (human, UniProt P49961 1-510).
T3 construct: whole, on cells; On Jurkat, 293T or SK-MEL28 cells; also called Jurkat/CD39; 293T/CD39
T3 sequence (looked up): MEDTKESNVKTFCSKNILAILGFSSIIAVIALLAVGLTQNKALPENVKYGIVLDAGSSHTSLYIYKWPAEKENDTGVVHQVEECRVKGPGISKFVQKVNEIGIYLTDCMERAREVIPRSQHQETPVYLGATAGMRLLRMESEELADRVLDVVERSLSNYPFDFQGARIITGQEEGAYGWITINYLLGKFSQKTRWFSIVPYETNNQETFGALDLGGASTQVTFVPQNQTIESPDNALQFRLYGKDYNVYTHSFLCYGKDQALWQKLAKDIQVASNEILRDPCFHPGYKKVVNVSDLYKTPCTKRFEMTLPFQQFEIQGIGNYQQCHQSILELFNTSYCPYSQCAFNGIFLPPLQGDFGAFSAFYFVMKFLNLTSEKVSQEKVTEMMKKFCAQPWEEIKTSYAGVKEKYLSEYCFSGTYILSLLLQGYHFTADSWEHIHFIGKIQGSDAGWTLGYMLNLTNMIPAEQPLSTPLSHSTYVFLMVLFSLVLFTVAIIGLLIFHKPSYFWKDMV
The test can be described thus: flow cytometry on a mix of Jurkat, Jurkat/TIM-3, Jurkat/CD39 and Jurkat/TIM-3+CD39 cells in one well, antibody at 0.1 nM, BV421-anti-hIgG, MFI of BV421 per cell group.

Test [8] deals with T2, biotinylated human TIM-3-Fc antigen …. Nature of the test: competition ELISA: human Galectin-9 coated, biotinylated human TIM-3-Fc pre-mixed with the antibody dilution series, Streptavidin-HRP, A450; blocked ligand: human Galectin-9.
The target is the same in test [9]. The test is described as above. The source holds these as a separate data set.
For test [10] the target is unchanged. Described as above. This is another data set of the same source.

Values joined by “and” are separate entries in the source; they are usually repeats but may differ in a detail not shown here. Identical values can stand only once. Like-named read-outs stand apart in the source and are kept apart here.

B1: Hu003_13_F20_sc (antibody)
scFv: QVQLQESGGGLVKPGGSLKLSCAASGFTFSSYYMSWVRQTPDKRLEWVATISNSGGSTYYPDSVKDRFTISRDNAKNTLYLQMSSLKSEDTAMYYCARDPYYTNYVPMDYWGQGTMVTVSSGGGGSGGGGSGGGGSGGGGSDIVMTQSPSFLSASVGDRVTITCKASQYVDTYVAWYQQRPGKAPKPLIYSASTRHTGVPSRFSGSGSGTEFTLTISSLQPEDFATYFCAQYSSSPLTFGGGTKLELK
notes: scFv-Fc homodimer, anti-TIM-3; also called scFv-Fc homodimeric antibody of anti-TIM-3_scFv antibody (humanized) Hu003_13_F20; not shown: GGGG linker and Fc-LALA (IgG1 Fc with L234A and L235A)
Take B1: the Kd amounted to 2.72 nM in test [1], 0.274 nM in test [2], 3.86 nM in [3] and 0.339 nM in test [4]. Further, the IC50 in [5] is 16.7 nM and 6.66 nM and 8.42 nM; in [6], 8.56 nM and 8.62 nM. In addition, in [7], the binding result is listed as “no binding (tested: 0.1 nM)”. Besides, the “IC50 (read off the curve)” value is ~0.5 nM and ~1 nM in test [8]; ~0.5 nM and ~0.3 nM in test [9]; around 1 nM in test [10].

(Values after patent publication US20260085127A1 (BRIGHTPATH BIOTHERAPEUTICS, published 2026).)
